Publication PMC8667043, “First-in-Class Inhibitors of the Ribosomal Oxygenase MINA53” (Journal of Medicinal Chemistry, 2021)

B1: NO66 (Homo sapiens) (protein)
chain: MDGLQASAGPLRRGRPKRRRKPQPHSGSVLALPLRSRKIRKQLRSVVSRMAALRTQTLPSENSEESRVESTADDLGDALPGGAAVAAVPDAARREPYGHLGPAELLEASPAARSLQTPSARLVPASAPPARLVEVPAAPVRVVETSALLCTAQHLAAVQSSGAPATASGPQVDNTGGEPAWDSPLRRVLAELNRIPSSRRRAARLFEWLIAPMPPDHFYRRLWEREAVLVRRQDHTYYQGLFSTADLDSMLRNEEVQFGQHLDAARYINGRRETLNPPGRALPAAAWSLYQAGCSLRLLCPQAFSTTVWQFLAVLQEQFGSMAGSNVYLTPPNSQGFAPHYDDIEAFVLQLEGRKLWRVYRPRVPTEELALTSSPNFSQDDLGEPVLQTVLEPGDLLYFPRGFIHQAECQDGVHSLHLTLSTYQRNTWGDFLEAILPLAVQAAMEENVEFRRGLPRDFMDYMGAQHSDSKDPRRTAFMEKVRVLVARLGHFAPVDAVADQRAKDFIHDSLPPVLTDRERALSVYGLPIRWEAGEPVNVGAQLTTETEVHMLQDGIARLVGEGGHLFLYYTVENSRVYHLEEPKCLEIYPQQADAMELLLGSYPEFVRVGDLPCDSVEDQLSLATTLYDKGLLLTKMPLALN
B2: MINA53 (Homo sapiens) (protein)
chain: MPKKAKPTGSGKEEGPAPCKQMKLEAAGGPSALNFDSPSSLFESLISPIKTETFFKEFWEQKPLLIQRDDPALATYYGSLFKLTDLKSLCSRGMYYGRDVNVCRCVNGKKKVLNKDGKAHFLQLRKDFDQKRATIQFHQPQRFKDELWRIQEKLECYFGSLVGSNVYITPAGSQGLPPHYDDVEVFILQLEGEKHWRLYHPTVPLAREYSVEAEERIGRPVHEFMLKPGDLLYFPRGTIHQADTPAGLAHSTHVTISTYQNNSWGDFLLDTISGLVFDTAKEDVELRTGIPRQLLLQVESTTVATRRLSGFLRTLADRLEGTKELLSSDMKKDFIMHRLPPYSAGDGAELSTPGGKLPRLDSVVRLQFKDHIVLTVLPDQDQSDEAQEKMVYIYHSLKNSRETHMMGNEEETEFHGLRFPLSHLDALKQIWNSPAISVKDLKLTTDEEKESLVLSLWTECLIQVV

Columns and labels:
[1] = substrate: CC[C@H](C)[C@H](NC(=O)[C@H](Cc1c[nH]cn1)NC(=O)[C@H](CCC(N)=O)NC(=O)[C@H](Cc1c[nH]cn1)NC(=O)[C@H](CC(N)=O)NC(=O)CNC(=O)CNC(=O)CNC(=O)[C@H](Cc1ccccc1)NC(=O)[C@@H]1CCCN1C(=O)[C@H](Cc1c[nH]cn1)NC(=O)[C@H](CCC(=O)O)NC(=O)[C@@H](NC(=O)[C@@H]1CCCN1C(=O)[C@@H](N)CC(N)=O)C(C)C)C(=O)NCC(=O)N[C@@H](CCCCN)C(=O)N1CCC[C@H]1C(=O)N[C@@H](CO)C(=O)N[C@H](C(=O)O)[C@@H](C)O; experiment: Determination of enzyme kinetic parameters (MS assay); assay type: biochemical; settings: other: 2OG, Fe(II): NO66 (Ser183-Asn641), n = 4; peptide: NO66 (Gln116-Asn641), n = 3; means ± 95% confidence
Description: (§1) Assays were performed in a 96-well, 2 mL polypropylene plate (Greiner Bio-one). […] Ion chromatogram data for the Rpl27a (m/z +5 charge state) and Rpl8 substrates (m/z +4 charge state) were extracted, and the peak areas were integrated using RapidFire Integrator software (Agilent). The integrated peak areas were exported into Excel, and the percent hydroxylation was calculated. The initial rate slope for each peptide concentration was calculated using excel, and the data were fitted to the Michaelis–Menten equation using GraphPad prism 5.
(§2) The concentrations were prepared as an 8-point 2-fold dilution series with a starting concentration of 20 μM. Each time series was based on 6-time points (0, 1, 5, 10, 20, and 30 min for NO66 and 0, 1, 3, 5, 7, and 10 min for MINA53). […] Reactions were stopped by the addition of 5 μL of 10% (v/v) formic acid. The first four reaction data points (starting with the 1 min time point) were used for kinetic analysis.

[2] = substrate: CC[C@H](C)[C@H](NC(=O)[C@H](CCCNC(=N)N)NC(=O)[C@H](Cc1c[nH]cn1)NC(=O)[C@H](Cc1c[nH]cn1)NC(=O)[C@H](Cc1c[nH]cn1)NC(=O)[C@H](CC(C)C)NC(=O)CNC(=O)CNC(=O)[C@H](C)NC(=O)[C@H](CC(N)=O)NC(=O)CNC(=O)[C@H](CCCNC(=N)N)NC(=O)CN)C(=O)N[C@@H](CC(N)=O)C(=O)N[C@@H](Cc1ccccc1)C(=O)N[C@@H](CC(=O)O)C(=O)N[C@@H](CCCCN)C(=O)N[C@@H](Cc1ccc(O)cc1)C(=O)N[C@@H](Cc1c[nH]cn1)C(=O)N1CCC[C@H]1C(=O)O; experiment: as above; assay type: biochemical; settings: other: 2OG, Fe(II): MINA53 (Met26-Val464), n = 4; peptide: MINA53 (Met1-Val464), n = 3; means ± 95% confidence
Description: as §1, §2

Row | Protein | Km [1] [µM] | Vmax [1] [µM/min] | Km [2] [µM] | Vmax [2] [µM/min]
1 | B1 | 19.11 ± 6.3 | 0.34 ± 0.05 |  | 
2 | B2 |  |  | 10.5 ± 5.5 | 0.36 ± 0.1
